# Measurements as given in the supplement of paper PMC10899765.
# How the values were obtained:
# Details in all cases: 20 nM; 72 h
# MCF10A [1] = assay: percent viability (nuclei count relative to siNT); higher = more viable cells
# Method: (§1)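 After 72 h, cells were fixed and stained with Hoechst and anti-fibrillarin, and nucleoli per nucleus were counted with CellProfiler. Values are plate-adjusted percent effect for the one-nucleolus and 5+ nucleoli phenotypes, normalised to siNT (0%) and to the positive controls siNOL11 or siKIF11 (100%), as the mean of biological triplicates. Percent viability is the nuclei count relative to siNT.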
# MCF10A [2] = assay: 5+ nucleoli phenotype percent effect (relative to siNT 0% and siKIF11 100%); higher = more cells with five or more nucleoli
# Method: as §1
# MCF10A [3] = assay: one-nucleolus phenotype percent effect (relative to siNT 0% and siNOL11 100%); higher = more cells with one nucleolus (ribosome biogenesis inhibition)
# Method: as §1
Sequence,percent viability (MCF10A [1]) [%],5+ nucleoli phenotype percent effect (MCF10A [2]) [%],one-nucleolus phenotype percent effect (MCF10A [3]) [%]
GGAGGGGUCCCGCACUGGGAGG [hsa-miR-1914-3p],126,46.6,-23.7
GGAGGUUGGGAAGGGCAGAG [hsa-miR-6086],69.1,0.449,-8.13
GGAGUGGGCUGGUGGUU [hsa-miR-4481],37.8,6.11,5.61
GGAUAUCAUCAUAUACUGUAAG [hsa-miR-144-5p],54.5,2.47,-0.41
GGAUCCGAGUCACGGCACCA [hsa-miR-4454],56,0.148,-14.9
GGAUGGAGGAGGGGUCU [hsa-miR-4534],46.8,31,-5.6
GGAUGGUUGGGGGCGGUCGGCGU [hsa-miR-8069],33.5,-16.7,28.5
GGAUUCCUGGAAAUACUGUUCU [hsa-miR-145-3p],55.6,-19.5,9.95
GGCAGGAGGGCUGUGCCAGGUUG [hsa-miR-4722-5p],60.5,13.5,-6.08
GGCAGGUUCUCACCCUCUCUAGG [hsa-miR-657],44.7,15.8,4.3
GGCCACUGAGUCAGCACCA [hsa-miR-4252],46.1,5.41,-3.69
GGCCUUGUUCCUGUCCCCA [hsa-miR-4312],22.7,-25.8,56
GGCGCGCCCAGCUCCCGGGCU [hsa-miR-4783-5p],90.3,28,-16.4
GGCGGAGGGAAGUAGGUCCGUUGGU [hsa-miR-658],63,5.47,-9.25
GGCGGCGGCGGAGGCGGGGG [hsa-miR-3960],47.6,-17.5,26.8
GGCGGCGGGGAGGUAGGCAG [hsa-miR-8072],49.8,-2.29,-6.87
GGCGGGUGCGGGGGUGG [hsa-miR-3656],148,37.2,-15.8
GGCUACAACACAGGACCCGGGC [hsa-miR-187-5p],136,15.6,-18.2
GGCUAGCAACAGCGCUUACCU [hsa-miR-621],51.6,-15.8,15.2
GGCUCAAUCUCUGGUCCUGCAGCC [hsa-miR-7158-5p],132,25.6,-21.5
GGCUCAUGUGUCUGUCCUCUUC [hsa-miR-6847-3p],44.2,1.91,-18
GGCUCCUUGGUCUAGGGGUA [hsa-miR-4448],45.2,20.5,-9.36
GGCUGAGUGGGGUUCUGACUCC [hsa-miR-8077],31.9,-6.36,-3.93
GGCUGGAGCGAGUGCAGUGGUG [hsa-miR-3135b],43.2,-9.26,9.78
